Target: T1, GST-GABARAPL2 (UniProt P60520 1-117)
T1 construct: GABARAPL2 of the bought GST fusion protein; source: bought: Proteintech (Ag1155)
Assay: pull-down; competitive GST pull-down: GST-GABARAPL2 on glutathione-conjugated Sepharose beads, SIK2 protein in solution, LIR peptide at 0, 5, 10, 20, 40 μmol/L; immunoblot
Conditions: both partners purified

T1 sequence (P60520 whole entry, the tested form may be a part): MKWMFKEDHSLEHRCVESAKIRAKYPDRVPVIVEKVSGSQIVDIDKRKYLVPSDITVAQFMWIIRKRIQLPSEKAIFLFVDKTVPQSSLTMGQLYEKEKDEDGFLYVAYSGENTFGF

B1: LC3-interacting region (LIR) 326–333 (FAAIYFLL) peptide (peptide)
peptide: FAAIYFLL
notes: SIK2 residues 326-333, the canonical LIR motif within 290-550; also called LIR peptide; source: synthetic peptide; bought: Sangon Biotech
- binding result: binds
